{
  "source": "paper PMC5939101",
  "about": "(Proceedings of the National Academy of Sciences of the …, 2018)",
  "binders": {"B1": {"name": "GST-Ypt7 (natural protein)", "chain": "MSSRKKNILKVIILGDSGVGKTSLMHRYVNDKYSQQYKATIGADFLTKEVTVDGDKVATMQVWDTAGQERFQSLGVAFYRGADCCVLVYDVTNASSFENIKSWRDEFLVHANVNSPETFPFVILGNKIDAEESKKIVSEKSAQELAKSLGDIPLFLTSAKNAINVDTAFEEIARSALQQNQADTEAFEDDYNDAINIRLDGENNSCSC"}},
  "molecular_target": "T1, His-Ivy1 (recombinant wild-type Ivy1) (S. cerevisiae, UniProt Q04934 1-453)",
  "T1 sequence": "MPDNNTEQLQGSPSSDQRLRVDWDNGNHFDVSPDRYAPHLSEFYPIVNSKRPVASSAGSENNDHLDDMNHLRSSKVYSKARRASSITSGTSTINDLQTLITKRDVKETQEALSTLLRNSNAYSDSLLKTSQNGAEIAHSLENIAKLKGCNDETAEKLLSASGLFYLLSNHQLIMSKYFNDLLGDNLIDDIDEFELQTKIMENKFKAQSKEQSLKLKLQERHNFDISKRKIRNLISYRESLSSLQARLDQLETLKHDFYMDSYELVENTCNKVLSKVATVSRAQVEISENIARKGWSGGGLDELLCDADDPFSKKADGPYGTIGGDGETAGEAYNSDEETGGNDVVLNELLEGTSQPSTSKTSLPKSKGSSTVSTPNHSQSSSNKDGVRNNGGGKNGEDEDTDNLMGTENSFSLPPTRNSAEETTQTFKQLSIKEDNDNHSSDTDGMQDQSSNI",
  "assay": "pull-down",
  "data": [
    {"binder": "B1", "values": [
      {"measurement": "binding result", "result": "binds"}
    ]}
  ]
}
